Results on 1 molecule are retold here after article PMC9652321, “Structural basis of human SNAPc recognizing proximal sequence element of snRNA promoter”.

In data set [1] the target is T1, mSNAPc#2 SNAP190-R445A (Homo sapiens, UniProt Q5SXM2;Q92966;Q16533;O75971 1-505;1-411;1-268;1-98, R445A).
T1 sequence 1: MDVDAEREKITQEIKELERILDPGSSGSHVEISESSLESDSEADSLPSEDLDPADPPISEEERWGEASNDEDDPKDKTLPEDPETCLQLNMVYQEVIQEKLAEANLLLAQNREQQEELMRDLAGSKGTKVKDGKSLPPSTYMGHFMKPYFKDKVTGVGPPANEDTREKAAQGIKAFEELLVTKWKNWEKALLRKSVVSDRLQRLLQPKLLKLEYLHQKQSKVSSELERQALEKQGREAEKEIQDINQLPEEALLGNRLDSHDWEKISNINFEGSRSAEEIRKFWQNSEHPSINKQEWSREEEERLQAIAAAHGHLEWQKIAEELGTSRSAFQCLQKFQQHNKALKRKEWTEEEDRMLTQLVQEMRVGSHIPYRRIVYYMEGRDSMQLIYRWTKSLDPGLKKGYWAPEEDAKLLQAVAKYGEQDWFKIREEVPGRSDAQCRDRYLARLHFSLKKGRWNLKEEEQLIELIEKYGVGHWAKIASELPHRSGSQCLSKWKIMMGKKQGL
T1 sequence 2: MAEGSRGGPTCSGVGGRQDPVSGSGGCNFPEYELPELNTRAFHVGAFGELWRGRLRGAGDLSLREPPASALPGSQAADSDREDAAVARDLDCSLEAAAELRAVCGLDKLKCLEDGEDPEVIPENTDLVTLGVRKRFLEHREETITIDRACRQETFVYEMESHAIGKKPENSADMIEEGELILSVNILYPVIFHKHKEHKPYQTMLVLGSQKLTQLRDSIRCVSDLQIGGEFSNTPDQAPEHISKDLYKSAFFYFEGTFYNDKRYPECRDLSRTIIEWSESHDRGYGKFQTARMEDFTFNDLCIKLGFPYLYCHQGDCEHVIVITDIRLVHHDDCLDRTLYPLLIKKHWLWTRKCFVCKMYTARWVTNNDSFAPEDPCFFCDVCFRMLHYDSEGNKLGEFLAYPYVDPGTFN
T1 sequence 3: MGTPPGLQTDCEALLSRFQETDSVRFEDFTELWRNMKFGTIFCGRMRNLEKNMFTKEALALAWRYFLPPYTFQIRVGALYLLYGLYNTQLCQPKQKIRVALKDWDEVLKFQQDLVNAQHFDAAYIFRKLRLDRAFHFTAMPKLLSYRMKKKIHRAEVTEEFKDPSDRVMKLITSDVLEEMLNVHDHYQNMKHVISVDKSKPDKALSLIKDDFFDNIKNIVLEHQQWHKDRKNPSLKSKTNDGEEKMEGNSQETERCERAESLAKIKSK
T1 sequence 4: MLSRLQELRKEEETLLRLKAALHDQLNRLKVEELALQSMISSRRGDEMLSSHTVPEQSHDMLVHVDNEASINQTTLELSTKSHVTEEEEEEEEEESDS
The data set can be described thus: SPR; EMSA: 100 mM KCl, 25 mM HEPES-K pH 7.6, 12.5 mM MgCl2, 10 uM ZnCl2, 0.1 mM EDTA, 10% glycerol, 3 mM DTT, 0.5 mM PMSF, 50 nM DNA, RT 30 min; SPR: 100 mM KCl, 12.5 mM MgCl2, 10 uM ZnCl2, 0.1 mM EDTA, 0.05% P20, 25 C. Conditions: protein: recombinant; tags: as P1; copies: 1;1;1;1. In general terms: SPR reads the build-up and loss of mass on a sensor chip optically.

Data set [2] has as its target T2, mSNAPc#2 SNAP50-W350A (Homo sapiens, UniProt Q5SXM2;Q92966;Q16533;O75971 1-505;1-411;1-268;1-98, W350A).
T2 sequence 1: T1 sequence 1 with A445R
T2 sequence 2: T1 sequence 2 with W350A
T2 sequence 3: T1 sequence 3
T2 sequence 4: T1 sequence 4
The description is as above. Conditions: protein: recombinant; tags: as P1; copies: 1;1;1;1.

Where a chain is given by its changes, count along the chain named.

B1: 25 bp hU6-1 PSE (SPR) (dsDNA)
DNA 1: TGCTTACCGTAACTTGAAAGTATTT
DNA 2: AAATACTTTCAAGTTACGGTAAGCA
What is called Kd is the equilibrium constant for the complex coming apart. Regarding B1, the values for the equilibrium dissociation constant (Kd) in data set [1] and in data set [2] were 603 nM and 887 nM, respectively.
